From article PMC5859130

What was measured:
[1] = biological target: Ixonnexin (Ixodes scapularis) (UniProt Q4PMS3); assay: SPR; Ixonnexin amine-coupled to a carboxymethylated dextran (CM5) chip, 726.2 RU; analytes injected 120 s at 30 µL/min, 25 °C, dissociation 600 s; global fit with the two-state (conformational change) model, Langmuir 1:1 for plasmin

Substance | Kd [1] | koff [1] | kon [1] | Km of plasmin generation (S2251) started with t-PA, with immobilized Ixonnexin (0.5 μg/ml) and increasing Glu-plasminogen (Single-chain t-PA) | ka1 (two-state, first step) [1] | ka2 (two-state, conformational change) [1] | kd1 (two-state, first step) [1] | kd2 (two-state, conformational change) [1]
Plasmin (enzyme) | 197 nM | 0.29 s⁻¹ | 1.48e+06 M⁻¹ s⁻¹ |  |  |  |  | 
Glu-plasminogen (natural protein) | 19.5 nM |  |  | 208 nM | 123000 M⁻¹ s⁻¹ | 0.022 s⁻¹ | 0.057 s⁻¹ | 0.00099 s⁻¹
Two-chain t-PA (enzyme) | 10.3 nM |  |  |  | 1.2e+06 M⁻¹ s⁻¹ | 0.011 s⁻¹ | 0.43 s⁻¹ | 0.0018 s⁻¹
Single-chain t-PA (enzyme) | 4.67 nM |  |  |  | 413000 M⁻¹ s⁻¹ | 0.0097 s⁻¹ | 0.031 s⁻¹ | 0.0015 s⁻¹
